# According to the DeepSol protein solubility set:
# Assay: soluble on expression in E. coli; label from the status in PepcDB or PDB records
row,Sequence,soluble on expression in E. coli
1,MAHHHHHHMTVGAAALCEYYGYLPRLVRHTGLLPSTRTSVTSSMAATVLQSSLYEADPSPPVRSGEFELPSTYSLHKPLVYDIAALPPKPVSSLRLVIISDTHERHREMSVPNGDVLVHCGDIQEGLNFVRDVKAMLIDFSAWFTDSALHPHPVKLIIAGNHDKAIAAMSTEDVRRLFAPAVYLCEDSVVVEPAGVRFYGSPRSISNSRWSPNTAFQGKKAWKRFVFASARQDDEAGAVSTASRCSSEQPLRSRLEGATPGGPVDVLVVHQSPDIPRAHHSVSEQPICAYAQQVAPRRVLLCGHLHGAHGMHRLPVPEHVRKSFRIATRGGGGQPEGVVRMDEIPHLPCINAAMMTGRFGQNVLLPPSVVDLEL,not soluble
2,MSSVVVVGTQWGDEGKGKITDFLSEHAEVVARYQGGNNAGHTIVFGGVKYKLHLIPSGIFYKEKICVIGNGLVVDPKALLEELKYLHDRGVSTDNLRVSNRAHVILPYHLKQDELEEASKGDNKIGTTKKGIGPAYMDKAARIGIRMADLLDREAFKEKLEQNLAQKNRLFEKMYDTEGFSVDEIFEEYFEYGQQIAQYVCDTSVVLNDALDNNHRVLFEGAQGVMLDIDHGTYPFVTSSNPIAGGVTVGTGVGPAKVTRVVGVCKAYTSRVGDGPFPTELHDEIGHQIREVGREYGTTTGRPRRVGWFDSVVVRHARRVSGLTDLSLNSIDVLTGIPTLKICVAYKCDGKVIDEVPANLNILAKCEPVYEELPGWTEDITGVRSLDELPENARKYVERVSELTGIQLSMFSVGPDRNQTNIVRNVYEA,not soluble
3,MKKVIAGLAAASVAGVAVPGMDSAHAQVSNEALKEINGQTQTQTQTQTTVTETKTVETTSELKYTVTADVLNVRSGAGTGHNVISKVKSGQVLQVVGQENGWFKVNVNGQTGYVSGDFVTTGGKTGTTVQQGTGTYTVNVSSLNVRTGPSTSHTVLGSVNKGKTVQVVGEVQDWFKINFNGGTGYVSKDFVTKGGSAVSNETQQPTTNNNTTTVQTGGSYVVNTGALKVRTGPATYNAVIGGVTNGKVLNVTGAENGWYKINHNGRTGYVSADFVKFVKGGVNNVTNNNNVTNNVQQPGKDVQKPTTGGDTSSIAGFARSLNGSPYRTAGTTPAGFDCSGFIHYVLNQTGHKGARQTVAGYWSSKTKTSNPQPGDLVYFQNTYKSGPSHMGVYLGNGQFISAETDATGVRISSVSNSYWSKHLLGYTKAYLEHHHHHH,soluble
4,MSLVSEAHIYLQKTNAIQQSSADLISILAGSGGNRDLLLLRDHLLSIDMMKLLDKDLHLREHFSDRRRDLLSRLWSKDAPDERFQRYYLSRIEVTYDDYAQVLSITAQAYSPEMARAIAQMMVTEGEKYMNALDHKTAHDQVSYIEQQVSALGVRMVAARKAVLAYQDAHGLVSPGNAVESISAIASRLDAELSDLMTKRAALAGYLTPAAPDIVQLDSQIAAVKSQLQAERQRVAAKRGGGLNAVAEEQGRLEAEAALADDMYKTALVALETARVESTRKIKSVAVLQSANLPVYPLEPRRIYNILEGHHHHHH,not soluble
5,NDNRPVFKEGQVEVHIPENAPVGTSVIQLHATDADIGSNAEIRYIFGAQVAPATKRLFALNNTTGLITVQRSLDREETAIHKVTVLASDGSSTPARATVTINVTDVN,soluble
6,MINKDTQLCMSLSGRPSNFGTTFHNYLYDKLGLNFIYKAFTTQDIEHAIKGVRALGIRGCAVSMPFKETCMPFLDEIHPSAQAIESVNTIVNDNGFLRAYNTDYIAIVKLIEKYHLNKNAKVIVHGSGGMAKAVVAAFKNSGFEKLKIYARNVKTGQYLAALYGYAYINSLENQQADILVNVTSIGMKGGKEEMDLAFPKAFIDNASVAFDVVAMPVETPFIRYAQARGKQTISGAAVIVLQAVEQFELYTHQRPSDELIAEAAAFARTKFLEHHHHHH,soluble
7,GMNSGKVAFIVTKNGKRICDVIDECSQRGSTILKAQGGYKQDDIQVVMCACNSKEMYQVRKSVKDTDPDSFIVVVESHEVHGEGFKMTNIGEAEN,not soluble
